Consider 2 molecules from paper PMC4278681.

This data set addresses T1, N-HvGR-RBP1 (RRM domain) (Hordeum vulgare L., UniProt J7FTI7 1-92).
T1 sequence: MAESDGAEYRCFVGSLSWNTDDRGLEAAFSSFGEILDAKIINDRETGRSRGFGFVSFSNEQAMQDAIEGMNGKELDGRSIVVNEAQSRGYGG
Description: NMR.

As to TTCTGT (ssDNA) [TTCTGT 6-mer], the binding result is recorded as “binds”.
For the molecule TTCTGA (ssDNA) [TTCTGA 6-mer], the binding result is reported as “binds”.
